According to patent US20140205597A1 (published 2014):

Tests used:
[1] = biological target: T1, cMet/Fc (UniProt P08581 25-932); assay: HGF-competition Alphascreen, monovalent form
T1 construct: not shown: Fc part not specified

[2] = biological target: T2, monoclonal antibody 21-4-3; assay: Biacore, captured 21-4-3
T2 construct: mouse IgG1 heavy chain, kappa light chain; also called mAb21-4-3; produced by hybridoma ABH0015 (LMBP-9680-CB)
Description: Binding measurements were performed using a Biacore T100 using a CM5 T120416 sensor chip, with running buffer HBS-EP+, 25° C. […] The anti-mouse IgG used was a polyclonal rabbit anti-mouse IgG antibodies reacting with all IgG subclasses, IgA and IgM (GE Healthcare; Cat#BR-1008-38; Lot#10056316). Immobilisation of the anti-mouse IgG was performed using manual amine coupling using a 7 minute injection of EDC/NHS for activation and a 7 minute injection of 1M ethanolamine HCl pH 8.5 for deactivation (Biacore, amine coupling kit).

[3] = biological target: T3, purified interference factor(s) from serum of Donor A; assay: Biacore, immobilized interference factor
T3 construct: text names Donors 8, 19 and 30

[4] = biological target: T4, purified interference factor(s) from serum of Donor B; assay: Biacore, immobilized interference factor
T4 construct: text names Donors 8, 19 and 30

[5] = biological target: T5, purified interference factor(s) from serum of Donor C; assay: Biacore, immobilized interference factor
T5 construct: text names Donors 8, 19 and 30

T1 sequence (P08581 25-932): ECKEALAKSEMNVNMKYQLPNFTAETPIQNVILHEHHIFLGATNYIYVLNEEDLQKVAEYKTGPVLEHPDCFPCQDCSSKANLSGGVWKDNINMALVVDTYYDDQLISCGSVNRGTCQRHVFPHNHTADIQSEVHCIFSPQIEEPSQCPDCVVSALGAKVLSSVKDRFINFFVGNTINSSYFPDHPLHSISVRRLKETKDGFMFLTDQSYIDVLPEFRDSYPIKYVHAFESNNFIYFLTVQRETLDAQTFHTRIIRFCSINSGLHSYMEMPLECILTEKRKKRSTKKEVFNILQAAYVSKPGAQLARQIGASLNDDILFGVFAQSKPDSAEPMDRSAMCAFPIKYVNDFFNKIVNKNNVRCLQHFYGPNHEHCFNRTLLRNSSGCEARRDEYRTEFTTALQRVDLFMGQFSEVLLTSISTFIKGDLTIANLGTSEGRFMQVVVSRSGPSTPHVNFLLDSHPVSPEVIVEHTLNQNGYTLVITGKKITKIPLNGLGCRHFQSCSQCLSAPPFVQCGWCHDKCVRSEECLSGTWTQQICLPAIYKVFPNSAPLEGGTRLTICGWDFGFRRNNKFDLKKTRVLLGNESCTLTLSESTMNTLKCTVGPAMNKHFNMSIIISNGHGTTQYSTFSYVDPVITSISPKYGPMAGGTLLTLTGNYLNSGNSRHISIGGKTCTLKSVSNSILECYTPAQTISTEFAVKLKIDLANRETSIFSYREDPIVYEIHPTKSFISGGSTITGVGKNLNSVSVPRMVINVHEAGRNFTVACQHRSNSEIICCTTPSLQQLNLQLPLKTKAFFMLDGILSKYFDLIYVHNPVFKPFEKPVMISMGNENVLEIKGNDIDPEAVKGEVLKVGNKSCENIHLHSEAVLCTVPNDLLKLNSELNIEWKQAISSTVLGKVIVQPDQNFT

Row | Binder | IC50 [1] [pM] | binding vs Reference Sequence (=100%) [2] [%] | binding vs Reference Sequence (=100%) [3] [%] | binding vs Reference Sequence (=100%) [4] [%] | binding vs Reference Sequence (=100%) [5] [%]
1 | A007901255, monovalent form (VHH, anti-c-MET Nanobody) VHH: DVQLVESGGGLVQPGGSLRLSCAASGFTFDDYAIGWFRQAPGEEREGVSSISSTYGLTYYADSVKGRFTISSDNSKNTVYLQMNSLRPEDTAVYYCAATPIGLIGLDAYEYDYWGQGTLVTVSS | 91 |  |  |  | 
2 | A007901256, monovalent form (VHH, anti-c-MET Nanobody) VHH: DVQLVESGGGLVQPGGSLRLSCAASGFAFDDYAIGWFRQAPGEEREGVSSISSTYGLTYYADSVKGRFTISSDNSKNTVYLQMNSLRPEDTAVYYCAATPIGLIGLDAYEYDYWGQGTLVTVSS | 48 |  |  |  | 
3 | A007901259, monovalent form (VHH, anti-c-MET Nanobody) VHH: DVQLVESGGGLVQPGGSLRLSCAASGFTFDDYAIGWFRQAPGEERLGVSSISSTYGLTYYADSVKGRFTISSDNSKNTVYLQMNSLRPEDTAVYYCAATPIGLIGLDAYEYDYWGQGTLVTVSS | 43 |  |  |  | 
4 | A007901260, monovalent form (VHH, anti-c-MET Nanobody) VHH: DVQLVESGGGLVQPGGSLRLSCAASGFAFDDYAIGWFRQAPGEERLGVSSISSTYGLTYYADSVKGRFTISSDNSKNTVYLQMNSLRPEDTAVYYCAATPIGLIGLDAYEYDYWGQGTLVTVSS | 35 |  |  |  | 
5 | SEQ ID NO 85 (VHH, L11S, T110Q, S112G, S113G) VHH: EVQLVESGGGSVQPGGSLRLSCAASRSIGRLDRMGWYRHRPGEPRELVATITGGSSINYGDSVKGRFTISIDNSKNTVYLQMNSLRPEDTAVYYCNFNKYVTSRDTWGQGTLVQVGG |  | 32 | 46 | 5 | 42
6 | SEQ ID NO 76 (VHH, C-terminal: GGG) VHH: EVQLVESGGGLVQPGGSLRLSCAASRSIGRLDRMGWYRHRPGEPRELVATITGGSSINYGDSVKGRFTISIDNSKNTVYLQMNSLRPEDTAVYYCNFNKYVTSRDTWGQGTLVTVSS |  | 2 | 2 | 17 | 20
7 | SEQ ID NO 74 (VHH, C-terminal: G) VHH: EVQLVESGGGLVQPGGSLRLSCAASRSIGRLDRMGWYRHRPGEPRELVATITGGSSINYGDSVKGRFTISIDNSKNTVYLQMNSLRPEDTAVYYCNFNKYVTSRDTWGQGTLVTVSS |  | 1 | 4 | 41 | 33
8 | SEQ ID NO 79 (VHH, C-terminal: GG) VHH: EVQLVESGGGLVQPGGSLRLSCAASRSIGRLDRMGWYRHRPGEPRELVATITGGSSINYGDSVKGRFTISIDNSKNTVYLQMNSLRPEDTAVYYCNFNKYVTSRDTWGQGTLVTVSS |  | 2 | 1 | 17 | 13
9 | SEQ ID NO 75 (VHH, C-terminal: AA) VHH: EVQLVESGGGLVQPGGSLRLSCAASRSIGRLDRMGWYRHRPGEPRELVATITGGSSINYGDSVKGRFTISIDNSKNTVYLQMNSLRPEDTAVYYCNFNKYVTSRDTWGQGTLVTVSS |  | 1 | 1 | 11 | 16
10 | SEQ ID NO 86 (VHH, L11S, T110Q) VHH: EVQLVESGGGSVQPGGSLRLSCAASRSIGRLDRMGWYRHRPGEPRELVATITGGSSINYGDSVKGRFTISIDNSKNTVYLQMNSLRPEDTAVYYCNFNKYVTSRDTWGQGTLVQVSS |  | 64 | 76 | 6 | 86
11 | SEQ ID NO 73 (VHH, C-terminal: G; S112G, S113G) VHH: EVQLVESGGGLVQPGGSLRLSCAASRSIGRLDRMGWYRHRPGEPRELVATITGGSSINYGDSVKGRFTISIDNSKNTVYLQMNSLRPEDTAVYYCNFNKYVTSRDTWGQGTLVTVGG |  | 1 | 6 | 8 | 9
12 | SEQ ID NO 88 (VHH, C-terminal: A; L11S, T110Q) VHH: EVQLVESGGGSVQPGGSLRLSCAASRSIGRLDRMGWYRHRPGEPRELVATITGGSSINYGDSVKGRFTISIDNSKNTVYLQMNSLRPEDTAVYYCNFNKYVTSRDTWGQGTLVQVSS |  | 1 | 1 | 5 | 11
13 | SEQ ID NO 77 (VHH, C-terminal: A) VHH: EVQLVESGGGLVQPGGSLRLSCAASRSIGRLDRMGWYRHRPGEPRELVATITGGSSINYGDSVKGRFTISIDNSKNTVYLQMNSLRPEDTAVYYCNFNKYVTSRDTWGQGTLVTVSS |  | 1 | 2 | 12 | 13
14 | SEQ ID NO 87 (VHH, L11S, S112G, S113G) VHH: EVQLVESGGGSVQPGGSLRLSCAASRSIGRLDRMGWYRHRPGEPRELVATITGGSSINYGDSVKGRFTISIDNSKNTVYLQMNSLRPEDTAVYYCNFNKYVTSRDTWGQGTLVTVGG |  | 41 | 51 | 5 | 39
15 | SEQ ID NO 89 (VHH, L11S, P14A, T110Q, S112G, S113G) VHH: EVQLVESGGGSVQAGGSLRLSCAASRSIGRLDRMGWYRHRPGEPRELVATITGGSSINYGDSVKGRFTISIDNSKNTVYLQMNSLRPEDTAVYYCNFNKYVTSRDTWGQGTLVQVGG |  | 2 | 14 | 5 | 17
